Test results published in patent US11987606.

Legend:
[1] = target: T cell receptor of Ova-specific CD8+ T cells (OT-I), on OT-I cells (mouse); test: flow cytometry; His-tagged protein pre-mixed with PE-labeled α-His mAb, incubated with OT-I cells at 37° C. for 5 hours
[2] = target: T cell receptor of Ova-specific CD8+ T cells (OT-I), on OT-I cells (mouse); test: cell-based or functional assay

mean fluorescence shift relative to the unstained control [1]: 100 fold
percent of OT-I cells pMHC+ (PE fluorescence) [1]: 98%
TCR Vα2 expression downregulated, percent of OT-I cells, compared to the α-His/PE control (flow cytometry) [2]: 90%
Substance: Kb(Ova)/ANXA5 carrying a His tag (peptide-MHC)
